Experimental data from the RNAGym collection of RNA variant scans (doi:10.7554/elife.80360).

B1: HDV Ribozyme (parent)
chain: GGCCGGCAUGGUCCCAGCCUCCUCGCUGGCGCCGGCUGGGCAACAUUCCGAGGGGACCGUCCCCUCGGUAAUGGCGAAUGGGACCCA

Variants of: B1
Experiment: self-cleavage, relative activity (ratio to wild type); higher = more cleavage; co-transcriptional

Row | Variant | self-cleavage
1 | GGCCGGCAUGGUUCCAGCCUCCUCGCUGGCGCCGGCUGGGCAACAUUCCGAGGGGACCGUACCCUCGGUAAUGGCGAAUGGGACCCA [C13U C61A] | 0.47
2 | GGCCGGCAUGGUUCCAGCCUCCUCGCUGGCGCCGGCUGGGCAACAUUCCGAGGGGACCGUUCCCUCGGUAAUGGCGAAUGGGACCCA [C13U C61U] | 0.77
3 | GGCCGGCAUGGUUCCAGCCUCCUCGCUGGCGCCGGCUGGGCAACAUUCCGAGGGGACCGUCCACUCGGUAAUGGCGAAUGGGACCCA [C13U C63A] | 0.542
4 | GGCCGGCAUGGUUCCAGCCUCCUCGCUGGCGCCGGCUGGGCAACAUUCCGAGGGGACCGUCCCCUAGGUAAUGGCGAAUGGGACCCA [C13U C66A] | 0.54
5 | GGCCGGCAUGGUUCCAGCCUCCUCGCUGGCGCCGGCUGGGCAACAUUCCGAGGGGACCGUCCCCUCGGUAAUGGAGAAUGGGACCCA [C13U C75A] | 0.148
6 | GGCCGGCAUGGUUCCAGCCUCCUCGCUGGCGCCGGCUGGGCAACAUUCCGAGGGGACCGUCCCCUCGGUAAUGGUGAAUGGGACCCA [C13U C75U] | 0.0314
7 | GGCCGGCAUGGUUCCAGCCUCCUCGCUGGCGCCGGCUGGGCAACAUUCCGAGGGGACCGUCCCCUCGGUAAUGGCGAAUGGGACCGA [C13U C86G] | 0.692
8 | GGCCGGCAUGGUUCCAACCUCCUCGCUGGCGCCGGCUGGGCAACAUUCCGAGGGGACCGUCCCCUCGGUAAUGGCGAAUGGGACCCA [C13U G17A] | 0.623
9 | GGCCGGCAUGGUUCCAUCCUCCUCGCUGGCGCCGGCUGGGCAACAUUCCGAGGGGACCGUCCCCUCGGUAAUGGCGAAUGGGACCCA [C13U G17U] | 0.612
10 | GGCCGGCAUGGUUCCAGCCUCCUCGCUCGCGCCGGCUGGGCAACAUUCCGAGGGGACCGUCCCCUCGGUAAUGGCGAAUGGGACCCA [C13U G28C] | 0
11 | GGCCGGCAUGGUUCCAGCCUCCUCGCUGGCUCCGGCUGGGCAACAUUCCGAGGGGACCGUCCCCUCGGUAAUGGCGAAUGGGACCCA [C13U G31U] | 0.185
12 | GGCCGGCAUGGUUCCAGCCUCCUCGCUGGCGCCAGCUGGGCAACAUUCCGAGGGGACCGUCCCCUCGGUAAUGGCGAAUGGGACCCA [C13U G34A] | 0.0875
13 | GGCCGGCAUGGUUCCAGCCUCCUCGCUGGCGCCGACUGGGCAACAUUCCGAGGGGACCGUCCCCUCGGUAAUGGCGAAUGGGACCCA [C13U G35A] | 0.272
14 | GGCCGGCAUGGUUCCAGCCUCCUCGCUGGCGCCGCCUGGGCAACAUUCCGAGGGGACCGUCCCCUCGGUAAUGGCGAAUGGGACCCA [C13U G35C] | 0.166
15 | GGCCGGCAUGGUUCCAGCCUCCUCGCUGGCGCCGUCUGGGCAACAUUCCGAGGGGACCGUCCCCUCGGUAAUGGCGAAUGGGACCCA [C13U G35U] | 0.163
16 | GGCCGGCAUGGUUCCAGCCUCCUCGCUGGCGCCGGCUGUGCAACAUUCCGAGGGGACCGUCCCCUCGGUAAUGGCGAAUGGGACCCA [C13U G39U] | 0.495
17 | GGCCGGCAUGGUUCCAGCCUCCUCGCUGGCGCCGGCUGGCCAACAUUCCGAGGGGACCGUCCCCUCGGUAAUGGCGAAUGGGACCCA [C13U G40C] | 0.0739
18 | GGCCGGCAUGGUUCCAGCCUCCUCGCUGGCGCCGGCUGGUCAACAUUCCGAGGGGACCGUCCCCUCGGUAAUGGCGAAUGGGACCCA [C13U G40U] | 0.117
19 | GGCCGGCAUGGUUCCAGCCUCCUCGCUGGCGCCGGCUGGGCAACAUUCCUAGGGGACCGUCCCCUCGGUAAUGGCGAAUGGGACCCA [C13U G50U] | 0.642
20 | GGCCGGCAUGGUUCCAGCCUCCUCGCUGGCGCCGGCUGGGCAACAUUCCGAAGGGACCGUCCCCUCGGUAAUGGCGAAUGGGACCCA [C13U G52A] | 0.682
21 | GGCCGGCAUGGUUCCAGCCUCCUCGCUGGCGCCGGCUGGGCAACAUUCCGAUGGGACCGUCCCCUCGGUAAUGGCGAAUGGGACCCA [C13U G52U] | 0.394
22 | GGCCGGCAUGGUUCCAGCCUCCUCGCUGGCGCCGGCUGGGCAACAUUCCGAGAGGACCGUCCCCUCGGUAAUGGCGAAUGGGACCCA [C13U G53A] | 0.77

Row | Variant | self-cleavage
23 | GGCCGGCAUGGUUCCAGCCUCCUCGCUGGCGCCGGCUGGGCAACAUUCCGAGGGUACCGUCCCCUCGGUAAUGGCGAAUGGGACCCA [C13U G55U] | 0.598
24 | GGCCGGCAUGGUUCCAGCCUCCUCGCUGGCGCCGGCUGGGCAACAUUCCGAGGGGACCCUCCCCUCGGUAAUGGCGAAUGGGACCCA [C13U G59C] | 0.587
25 | GGCCGGCAUGGUUCCAGCCUCCUCGCUGGCGCCGGCUGGGCAACAUUCCGAGGGGACCUUCCCCUCGGUAAUGGCGAAUGGGACCCA [C13U G59U] | 0.831
26 | GGCCGGCAUGGUUCCAGCCUCCUCGCUGGCGCCGGCUGGGCAACAUUCCGAGGGGACCGUCCCCUCUGUAAUGGCGAAUGGGACCCA [C13U G67U] | 0.712
27 | GGCCGGCAUGGUUCCAGCCUCCUCGCUGGCGCCGGCUGGGCAACAUUCCGAGGGGACCGUCCCCUCGAUAAUGGCGAAUGGGACCCA [C13U G68A] | 0.502
28 | GGCCGGCAUGGUUCCAGCCUCCUCGCUGGCGCCGGCUGGGCAACAUUCCGAGGGGACCGUCCCCUCGGUAAUCGCGAAUGGGACCCA [C13U G73C] | 0.123
29 | GGCCGGCAUGGUUCCAGCCUCCUCGCUGGCGCCGGCUGGGCAACAUUCCGAGGGGACCGUCCCCUCGGUAAUGGCCAAUGGGACCCA [C13U G76C] | 0.772
30 | GGCCGGCAUGGUUCCAGCCUCCUCGCUGGCGCCGGCUGGGCAACAUUCCGAGGGGACCGUCCCCUCGGUAAUGGCGAAUUGGACCCA [C13U G80U] | 0.185
31 | GGCCGGCAUGGUUCCAGCCUCCUCGCUGGCGCCGGCUGGGCAACAUUCCGAGGGGACCGUCCCCUCGGUAAUGGCGAAUGCGACCCA [C13U G81C] | 0.249
32 | GGCCGGCAUGGUUCCAGCCUCCUCGCUGGCGCCGGCUGGGCAACAUUCCGAGGGGACCGUCCCCUCGGUAAUGGCGAAUGGAACCCA [C13U G82A] | 0.997
33 | GGCCGGCAUGGUUCCAGCCUCCCCGCUGGCGCCGGCUGGGCAACAUUCCGAGGGGACCGUCCCCUCGGUAAUGGCGAAUGGGACCCA [C13U U23C] | 0.415
34 | GGCCGGCAUGGUUCCAGCCUCCUCGCUGGCGCCGGCUGGGCAACAUUCCGAGGGGACCGUCCCCCCGGUAAUGGCGAAUGGGACCCA [C13U U65C] | 0.604
35 | GGCCGGCAUGGUUCCAGCCUCCUCGCUGGCGCCGGCUGGGCAACAUUCCGAGGGGACCGUCCCCGCGGUAAUGGCGAAUGGGACCCA [C13U U65G] | 0.895
36 | GGCCGGCAUGGUUCCAGCCUCCUCGCUGGCGCCGGCUGGGCAACAUUCCGAGGGGACCGUCCCCUCGGCAAUGGCGAAUGGGACCCA [C13U U69C] | 0.88
37 | GGCCGGCAUGGUUCCAGCCUCCUCGCUGGCGCCGGCUGGGCAACAUUCCGAGGGGACCGUCCCCUCGGUAAUGGCGAACGGGACCCA [C13U U79C] | 0.103
38 | GGCCGGCAUGGUUCCAGCCUCCUCGCUGGCGCCGGCUGGGCAACAUUCCGAGGGGACCGUCCCCUCGGUAAUGGCGAAGGGGACCCA [C13U U79G] | 0.0519
39 | GGCCGGCAUGGUCACGGCCUCCUCGCUGGCGCCGGCUGGGCAACAUUCCGAGGGGACCGUCCCCUCGGUAAUGGCGAAUGGGACCCA [C14A A16G] | 0.776
40 | GGCCGGCAUGGUCACAGCCUCCUCGCUGGCGCCGGCUGGGCUACAUUCCGAGGGGACCGUCCCCUCGGUAAUGGCGAAUGGGACCCA [C14A A42U] | 0.201
41 | GGCCGGCAUGGUCACAGCCUCCUCGCUGGCGCCGGCUGGGCAACCUUCCGAGGGGACCGUCCCCUCGGUAAUGGCGAAUGGGACCCA [C14A A45C] | 0.199
42 | GGCCGGCAUGGUCACAGCCUCCUCGCUGGCGCCGGCUGGGCAACAUUCCGCGGGGACCGUCCCCUCGGUAAUGGCGAAUGGGACCCA [C14A A51C] | 0.959
43 | GGCCGGCAUGGUCACAGCCUCCUCGCUGGCGCCGGCUGGGCAACAUUCCGAGGGGUCCGUCCCCUCGGUAAUGGCGAAUGGGACCCA [C14A A56U] | 0.688
44 | GGCCGGCAUGGUCACAGCCUCCUCGCUGGCGCCGGCUGGGCAACAUUCCGAGGGGACCGUCCCCUCGGUAAUGGCGCAUGGGACCCA [C14A A77C] | 0.115

Row | Variant | self-cleavage
45 | GGCCGGCAUGGUCACAGCCUCCUCGCUGGCGCCGGCUGGGCAACAUUCCGAGGGGACCGUCCCCUCGGUAAUGGCGAAUGGGGCCCA [C14A A83G] | 0.475
46 | GGCCGGCAUGGUCACAGCCUCCUCGCUGGCGCCGGCUGGGCAACAUUCCGAGGGGACCGUCCCCUCGGUAAUGGCGAAUGGGACCCU [C14A A87U] | 0.623
47 | GGCCGGCAUGGUCAUAGCCUCCUCGCUGGCGCCGGCUGGGCAACAUUCCGAGGGGACCGUCCCCUCGGUAAUGGCGAAUGGGACCCA [C14A C15U] | 0.192
48 | GGCCGGCAUGGUCACAGCCUUCUCGCUGGCGCCGGCUGGGCAACAUUCCGAGGGGACCGUCCCCUCGGUAAUGGCGAAUGGGACCCA [C14A C21U] | 0.151
49 | GGCCGGCAUGGUCACAGCCUCAUCGCUGGCGCCGGCUGGGCAACAUUCCGAGGGGACCGUCCCCUCGGUAAUGGCGAAUGGGACCCA [C14A C22A] | 0.0692
50 | GGCCGGCAUGGUCACAGCCUCCUCGCUGGAGCCGGCUGGGCAACAUUCCGAGGGGACCGUCCCCUCGGUAAUGGCGAAUGGGACCCA [C14A C30A] | 0.104
51 | GGCCGGCAUGGUCACAGCCUCCUCGCUGGGGCCGGCUGGGCAACAUUCCGAGGGGACCGUCCCCUCGGUAAUGGCGAAUGGGACCCA [C14A C30G] | 0
52 | GGCCGGCAUGGUCACAGCCUCCUCGCUGGCGCCGGAUGGGCAACAUUCCGAGGGGACCGUCCCCUCGGUAAUGGCGAAUGGGACCCA [C14A C36A] | 0
53 | GGCCGGCAUGGUCACAGCCUCCUCGCUGGCGCCGGCUGGGAAACAUUCCGAGGGGACCGUCCCCUCGGUAAUGGCGAAUGGGACCCA [C14A C41A] | 0.734
54 | GGCCGGCAUGGUCACAGCCUCCUCGCUGGCGCCGGCUGGGGAACAUUCCGAGGGGACCGUCCCCUCGGUAAUGGCGAAUGGGACCCA [C14A C41G] | 0.554
55 | GGCCGGCAUGGUCACAGCCUCCUCGCUGGCGCCGGCUGGGCAAAAUUCCGAGGGGACCGUCCCCUCGGUAAUGGCGAAUGGGACCCA [C14A C44A] | 0.246
56 | GGCCGGCAUGGUCACAGCCUCCUCGCUGGCGCCGGCUGGGCAACAUUACGAGGGGACCGUCCCCUCGGUAAUGGCGAAUGGGACCCA [C14A C48A] | 0.485
57 | GGCCGGCAUGGUCACAGCCUCCUCGCUGGCGCCGGCUGGGCAACAUUGCGAGGGGACCGUCCCCUCGGUAAUGGCGAAUGGGACCCA [C14A C48G] | 0.969
58 | GGCCGGCAUGGUCACAGCCUCCUCGCUGGCGCCGGCUGGGCAACAUUCCGAGGGGAACGUCCCCUCGGUAAUGGCGAAUGGGACCCA [C14A C57A] | 0.745
59 | GGCCGGCAUGGUCACAGCCUCCUCGCUGGCGCCGGCUGGGCAACAUUCCGAGGGGACGGUCCCCUCGGUAAUGGCGAAUGGGACCCA [C14A C58G] | 0.762
60 | GGCCGGCAUGGUCACAGCCUCCUCGCUGGCGCCGGCUGGGCAACAUUCCGAGGGGACCGUACCCUCGGUAAUGGCGAAUGGGACCCA [C14A C61A] | 0.878
61 | GGCCGGCAUGGUCACAGCCUCCUCGCUGGCGCCGGCUGGGCAACAUUCCGAGGGGACCGUCCGCUCGGUAAUGGCGAAUGGGACCCA [C14A C63G] | 0.935
62 | GGCCGGCAUGGUCACAGCCUCCUCGCUGGCGCCGGCUGGGCAACAUUCCGAGGGGACCGUCCCAUCGGUAAUGGCGAAUGGGACCCA [C14A C64A] | 0.793
63 | GGCCGGCAUGGUCACAGCCUCCUCGCUGGCGCCGGCUGGGCAACAUUCCGAGGGGACCGUCCCCUAGGUAAUGGCGAAUGGGACCCA [C14A C66A] | 0.578
64 | GGCCGGCAUGGUCACAGCCUCCUCGCUGGCGCCGGCUGGGCAACAUUCCGAGGGGACCGUCCCCUGGGUAAUGGCGAAUGGGACCCA [C14A C66G] | 0.57
